Measured values reported in publication PMC8751651 (ACS Omega, 2021).
Where no end group is shown, it is not given here. The star is where a group is joined. Biotin = O=C1N[C@H]2[C@H](CS[C@H]2CCCCC(=O)*)N1; Cam = NC(=O)C*

Target: Recombinant SARS-CoV-2 spike RBD protein (SARS-CoV-2, UniProt P0DTC2)
Experiment: SPR

Binder: Biotin-SCFDFLNWASCDGGGS (cysteine pairing not given here) [biotinylated peptide 1 (second synthesis)]
- Kd: 5.8 µM

Binder: Biotin-SC(Cam)FDFLNWASCDGGGS [biotinylated peptide 6 (second synthesis)]
- Kd: ~19 µM
